Test results taken from article PMC8990011, “Bcl-xL acts as an inhibitor of IP3R channels, thereby antagonizing Ca^2+-driven apoptosis” (Cell Death and Differentiation, 2021).
One block for each binder: values may come before it.

Key:
6xHis-Bcl-xL = target: T1, 6xHis-Bcl-xL (human, UniProt Q07817-1 1-233, RED-tris-NTA dye on the His tag (Monolith His-Tag Labeling Kit) in MST); test: MST; 6xHis-Bcl-xL proteins labelled with RED-tris-NTA kept constant at 50 nM; GST proteins titrated down from 15 µM to 5 nM; Monolith NT, 5% excitation power, medium MST power; triplicates; details: both partners purified
T1 construct: full-length Bcl-xL cloned in pET45b in the 6xHis-encoding reading frame; also called wild-type 6xHis-Bcl-xL; full-length 6xHis-Bcl-xL; source: E. coli BL21, purified (NiNTA)
T1 sequence (Q07817 whole entry): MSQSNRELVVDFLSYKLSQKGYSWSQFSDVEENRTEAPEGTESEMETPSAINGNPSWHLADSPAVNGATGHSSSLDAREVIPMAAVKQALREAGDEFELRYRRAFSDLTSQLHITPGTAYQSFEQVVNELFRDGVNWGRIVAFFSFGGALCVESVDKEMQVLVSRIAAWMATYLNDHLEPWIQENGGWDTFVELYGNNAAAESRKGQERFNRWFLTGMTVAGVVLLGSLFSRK

6xHis-Bcl-xL^K87D = target: T2, 6xHis-Bcl-xL^K87D (human, UniProt Q07817-1 1-233, K87D, RED-tris-NTA dye on the His tag (Monolith His-Tag Labeling Kit) in MST); test: as above; details: both partners purified
T2 construct: full-length Bcl-xL with K87D, made from pET45b-Bcl-xL by site-directed mutagenesis; also called full-length Bcl-xL^K87D; purified Bcl-xL^K87D; source: E. coli BL21, purified (NiNTA)
T2 sequence (Q07817 whole entry K87D): as the sequence (Q07817 whole entry) above, with K87D counted along it

- Kd (6xHis-Bcl-xL): ~495 nM
- Kd (6xHis-Bcl-xL^K87D): ~990 nM
B1: GST-mIP3R1-Fragment 3 (domain or fragment)
chain: SIHGVGELMTQVVLRGGGFLPMTPMAAAPEGNVKQAEPEKEDIMVMDTKLKIIEILQFILNVRLDYRISCLLCIFKREFDESNSQSSETSSGNSSQEGPSNVPGALDFEHIEEQAEGIFGGSEENTPLDLDDHGGRTFLRVLLHLTMHDYPPLVSGALQLLFRHFSQRQEVLQAFKQVQLLVTSQDVDNYKQIKQDLDQLRSIVEKSELWVYKGQGPDEPMDGASGENEHKKTEEGTSKPLKHESTSSYNYRVVKEILIRLSKLCVQESASVRKSRKQQQRLLRNMGAHAVVLELLQIPYEKAEDTKMQEIMRLAHEFLQNFCAGNQQNQALLHKHINLFLNPGILEAVTMQHIFMNNFQLCSEINERVVQHFVHCIETHGRNVQYIKFLQTIVKAEGKFIKKCQDMVMAELVNSGEDVLVFYNDRASFQTLIQMMRSERDRMDENSPLMYHIHLVELLAVCTEGKNVYTEIKCNSLLPLDDIVRVVTHEDCIPEVKIAYINFLNHCYVDTEVEMKEIYTSNHMWKLFENFLVDICRACNNTSDRKHADSILEKYVTEIVMSIVTTFFSSPFSDQSTTLQTRQPVFVQLLQGVFRVYHCNWLMPSQKASVESCIRVLSDVAKSRAIAIPVDLDSQVNNLFLKSHNIVQKTALNWRLSAR

- Kd (6xHis-Bcl-xL): ~701 nM
- Kd (6xHis-Bcl-xL^K87D): ~1170 nM
B2: GST-mIP3R1-LBD (domain or fragment)
chain: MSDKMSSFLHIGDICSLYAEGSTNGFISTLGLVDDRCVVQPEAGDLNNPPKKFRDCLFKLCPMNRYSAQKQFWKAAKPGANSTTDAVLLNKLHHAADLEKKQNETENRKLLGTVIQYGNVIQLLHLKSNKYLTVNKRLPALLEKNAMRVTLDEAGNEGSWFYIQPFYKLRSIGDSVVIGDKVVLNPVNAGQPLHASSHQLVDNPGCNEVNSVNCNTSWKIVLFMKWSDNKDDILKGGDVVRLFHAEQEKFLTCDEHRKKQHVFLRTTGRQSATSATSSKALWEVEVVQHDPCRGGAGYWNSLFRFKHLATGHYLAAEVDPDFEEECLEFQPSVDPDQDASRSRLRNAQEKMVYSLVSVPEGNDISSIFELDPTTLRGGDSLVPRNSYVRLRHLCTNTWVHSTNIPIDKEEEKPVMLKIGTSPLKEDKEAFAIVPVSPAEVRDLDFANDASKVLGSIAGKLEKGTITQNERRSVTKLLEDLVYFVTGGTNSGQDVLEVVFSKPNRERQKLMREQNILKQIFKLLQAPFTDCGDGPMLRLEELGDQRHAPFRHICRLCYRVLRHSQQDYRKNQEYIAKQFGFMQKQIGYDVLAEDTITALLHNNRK
